Measurements from US11472855, “RNA-binding protein” (Panitch Schwarze Belisario & Nadel LLP).
Positions count from the first letter of the chain named.

Assays:
Settings in all cases: label: Alexa680 at 5' and 3'
hPUF_MT(R7_ILQ) = target: T1, hPUF_MT(R7_ILQ) (UniProt Q14671 SEQ:1-342); experiment: EMSA; comparable to WT
T1 chain: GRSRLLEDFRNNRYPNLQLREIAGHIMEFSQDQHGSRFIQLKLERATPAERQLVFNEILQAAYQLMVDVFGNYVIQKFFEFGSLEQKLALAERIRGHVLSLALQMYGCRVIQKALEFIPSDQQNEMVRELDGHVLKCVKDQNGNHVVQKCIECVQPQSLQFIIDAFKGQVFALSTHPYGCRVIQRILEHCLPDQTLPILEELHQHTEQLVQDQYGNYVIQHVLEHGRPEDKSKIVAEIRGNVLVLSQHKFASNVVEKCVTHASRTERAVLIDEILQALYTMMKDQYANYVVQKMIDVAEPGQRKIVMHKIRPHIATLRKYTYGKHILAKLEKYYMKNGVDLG

hPUF_MT(R7_IRG) = target: T2, hPUF_MT(R7_IRG) (UniProt Q14671 SEQ:1-342); experiment: EMSA; comparable to WT
T2 chain: T1 chain with L275R, Q276G

[1] = target: T3, hPUF_MT(R2_N12S,Q16R, R3→R5, R4→R6) (R2 repeat N12S,Q16R); experiment: EMSA; binds C exclusively
T3 chain: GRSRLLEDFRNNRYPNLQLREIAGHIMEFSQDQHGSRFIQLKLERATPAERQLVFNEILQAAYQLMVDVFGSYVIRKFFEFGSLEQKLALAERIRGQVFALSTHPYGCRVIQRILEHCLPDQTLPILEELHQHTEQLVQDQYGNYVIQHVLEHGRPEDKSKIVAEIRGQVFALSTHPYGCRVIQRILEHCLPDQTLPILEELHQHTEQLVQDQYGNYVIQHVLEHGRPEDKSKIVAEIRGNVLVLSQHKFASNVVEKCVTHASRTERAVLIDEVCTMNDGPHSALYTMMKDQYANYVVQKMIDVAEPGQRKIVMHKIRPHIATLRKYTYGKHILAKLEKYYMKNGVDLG

[2] = target: T4, hPUF_MT(R2_N12S,Q16E, R3→R5, R4→R6) (R2 repeat N12S,Q16E); experiment: EMSA; binds G exclusively
T4 chain: T3 chain with R76E

[3] = target: T5, hPUF_MT(R8_N12S,Q16E, R3→R5, R4→R6) (R8 repeat N12S,Q16E); experiment: EMSA; binds G exclusively
T5 chain: T3 chain with S72N, R76Q, N295S, Q299E

[4] = target: T6, hPUF_MT(R7_S12N,E16Q, R3→R5, R4→R6) (R7 repeat S12N,E16Q); experiment: EMSA; binds U exclusively
T6 chain: T3 chain with S72N, R76Q, S252N, E256Q

hPUF_MT(R4→R6) = target: T7, hPUF_MT(R4→R6) (UniProt Q14671 SEQ:1-349); experiment: EMSA; comparable to WT
T7 chain: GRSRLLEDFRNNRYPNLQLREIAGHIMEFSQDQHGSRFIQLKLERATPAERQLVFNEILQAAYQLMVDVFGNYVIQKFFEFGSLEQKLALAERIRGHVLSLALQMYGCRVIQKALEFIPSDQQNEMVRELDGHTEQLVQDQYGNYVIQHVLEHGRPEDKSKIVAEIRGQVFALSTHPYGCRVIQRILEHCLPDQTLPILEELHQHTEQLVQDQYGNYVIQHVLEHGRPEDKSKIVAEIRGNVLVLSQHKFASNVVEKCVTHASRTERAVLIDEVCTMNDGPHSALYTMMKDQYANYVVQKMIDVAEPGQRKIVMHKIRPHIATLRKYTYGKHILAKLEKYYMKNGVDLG
Protocol: An RNA probe (OTS-1511) containing a target sequence fluorescence-labeled with Alexa680 at both ends thereof was synthesized.
Each purified protein was diluted to a desired concentration with Binding Buffer, mixed with a binding buffer and Ribonuclease Inhibitor, Cloned (Invitrogen), and then, mixed with the RNA probe at a final concentration of 0.5 nM. […] A binding reaction was performed at 4° C. for 30 min. Subsequently, the solution was gently mixed by pipetting. A binding reaction was performed again at 4° C. for […].

Does CCAGAAUUGUAUAUAUUCG (ssRNA) [OTS-1511] bind (hPUF_MT(R7_ILQ))?
Result: binds

Does CCAGAAUUGUAUAUAUUCG (ssRNA) [OTS-1511] bind (hPUF_MT(R7_IRG))?
Result: binds

Does CCAGAAUUGUAUAUAUUCG (ssRNA) [OTS-1511] bind [1]?
Result: no binding

Does CCAGAAUUGUAUAUAUUCG (ssRNA) [OTS-1511] bind [2]?
Result: no binding

Does CCAGAAUUGUAUAUAUUCG (ssRNA) [OTS-1511] bind [3]?
Result: no binding

Does CCAGAAUUGUAUAUAUUCG (ssRNA) [OTS-1511] bind [4]?
Result: no binding

Does CCAGAAUUGUAUAUAUUCG (ssRNA) [OTS-1511] bind (hPUF_MT(R4→R6))?
Result: binds
